pIC50: −log10 of the molar value. Where no end group is shown, it is not given here.
Columns and labels:
αvβ3 integrins = target: T1, αvβ3 integrins (Homo sapiens, UniProt P05106+P06756); experiment: Anti-adhesion assay on vitronectin-coated wells; format: cell-based; settings: HeLa cells
T1 construct: host or cells: HeLa cells, harvested by scraping
Experimental: HeLa cells (ATCC, Manassas, Va.) were cultured in DMEM medium (Invitrogen, Carlsbad, Calif.) supplemented with 10% Bovine Growth Serum (BGS, Hyclone, Logan, Utah). The cells were cultured at 37° C., with 98% humidity and 5% CO2. Cells were regularly subcultured using trypsin. 96-well plates were coated with human vitronectin by incubating a vitronectin solution (50 μL of 3 μg/mL, Invitrogen, Carlsbad, Calif.) in the well for 12-hrs at 37° C. The wells were washed three times with PBS and blocked with BSA (50 μL of 2% BSA in PBS) for 30 minutes at 37° C. The wells were washed three times with PBS and 100 μL/well of serum-free DMEM was added before chilling on ice. HeLa cells were harvested by scrapping using cell scrapers (USA Scientific, Ocala, Fla.), pelleted, and resuspended in ice cold serum-free DMEM to 400,000 cells/mL. 200 μL of serum-free DMEM was added to 50 μL of Au-Cap-RGD solution and vortexed before 250 μL of cell solution was added to the cells and placed in ice for 15 minutes. 100 μL/well of cell solution was added and allowed to incubate at 37° C. for 50 minutes. The plate was submerged in PBS in a Ziploc bag and centrifuged upside down for 10 minutes at 250 g. The plate was washed gently with additional PBS and removed. Remaining liquid was removed from the wells. The cells were fixed using 4% paraformaldehyde solution for 15 minutes and washed 3 times with PBS. Crystal violet solution was added to each well and incubated for 1 hr. The wells were then washed with milliQ water until no crystal violet was visible in solution. Crystal violet was solubilized using 10% acetic acid plate for 15 min and the absorbance at 570 nm was taken using the PowerWave microplate reader (BioTek, Winooski, Vt.).

HeLa cells = experiment: Cell toxicity (proliferation) assay; format: cell-based; settings: all concentrations tested up to 17.9×10^10 particles/well
Experimental: FIG. 4. Cell toxicity (proliferation) assay for Au-Cap nanoparticles and DNA/PEI-Au polyplexes. HeLa cells were plated in 96-well plates (7000 cells/well) for 12-hrs before exposing the cells to Au-Cap nanoparticles or DNA/PEI-Au-Cap-RGD-ASA polyplexes at varying concentrations of Au nanoparticles (1.7 μL/well) and testing for cell proliferation. The data was normalized to absorbance of untreated samples to calculate the percent viability for each sample (n=3).
To determine whether 5 nm Au-Cap or DNA/PEI polyplexes modified with 5 nm Au-RGD-ASA were toxic to cells, the proliferation rate of HeLa cells exposed to Au-Cap or DNA/PEI-Au-RGD-ASA was compared to that of untreated cells (FIG. 4). Au-Cap nanoparticles were not toxic to cells for all the concentrations tested up to 17.9×10^10 particles/well (equivalent to 80×10^10 particles/m DNA).

[1] = Salt stability of modified and unmodified nanoparticles by UV-Vis absorbance; format: physicochemical; settings: absorption scan, increasing NaCl
Experimental: FIG. 2. Salt stability of modified and unmodified nanoparticles measured using UV-Vis absorbance spectroscopy. Salt concentration was increased using 2 μL for unmodified nanoparticles and 15 μL of 4.11 M NaCl every 15 min. Wavelength scans of (A) 5 nm unmodified Au nanoparticles and (B) Au-Cap nanoparticles in solution with increasing NaCl concentration. Shaded area under the curves in A and B were used to calculate aggregation parameter. C. Aggregation parameter plotted with mean±SD for n=3 for increasing NaCl concentration for 5 nm unmodified Au and Au-Cap.
Peptide-modified (Au-Cap) and unmodified particles were tested to check their salt stability. Au and Au-Cap nanoparticles were added to semi-micro cuvettes and serial additions of NaCl solution were added every 15 min followed by a wavelength scan from 400-900 nm (Beckman DU 730, Fullerton, Calif.). Aggregation parameter (AP) used to quantify aggregation was calculated using the equation AP=(A−A0)/A0. A is the integral of absorbance from 600 to 700 nm, and A0 is the integral of absorbance from 600 to 700 nm of the initial solution without salt added (see FIG. 2 area under the curve).

T1 sequence (P06756 31-889 limits assumed): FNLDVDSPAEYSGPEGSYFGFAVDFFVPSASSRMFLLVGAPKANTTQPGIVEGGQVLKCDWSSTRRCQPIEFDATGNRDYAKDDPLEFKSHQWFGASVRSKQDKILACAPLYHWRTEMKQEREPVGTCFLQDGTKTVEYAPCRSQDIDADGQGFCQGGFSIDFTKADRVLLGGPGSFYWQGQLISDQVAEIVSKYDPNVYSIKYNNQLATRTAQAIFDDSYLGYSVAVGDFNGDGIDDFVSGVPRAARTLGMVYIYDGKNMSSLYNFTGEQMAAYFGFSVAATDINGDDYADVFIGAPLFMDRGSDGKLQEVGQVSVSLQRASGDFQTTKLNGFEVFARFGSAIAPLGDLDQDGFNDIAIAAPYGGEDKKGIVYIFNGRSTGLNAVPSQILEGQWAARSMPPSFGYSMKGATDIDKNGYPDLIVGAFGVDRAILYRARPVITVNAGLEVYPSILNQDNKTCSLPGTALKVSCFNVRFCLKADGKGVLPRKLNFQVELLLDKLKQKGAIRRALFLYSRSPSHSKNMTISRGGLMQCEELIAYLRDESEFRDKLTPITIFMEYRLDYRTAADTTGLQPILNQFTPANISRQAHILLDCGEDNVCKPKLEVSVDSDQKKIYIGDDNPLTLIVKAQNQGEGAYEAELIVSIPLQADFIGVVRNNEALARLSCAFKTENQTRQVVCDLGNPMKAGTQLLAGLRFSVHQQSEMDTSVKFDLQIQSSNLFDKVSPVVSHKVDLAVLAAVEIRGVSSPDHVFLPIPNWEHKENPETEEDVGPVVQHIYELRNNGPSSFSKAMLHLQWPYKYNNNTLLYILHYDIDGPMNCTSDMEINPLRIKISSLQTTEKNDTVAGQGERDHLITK
T1 sequence (P06756 891-1048 partner limits assumed): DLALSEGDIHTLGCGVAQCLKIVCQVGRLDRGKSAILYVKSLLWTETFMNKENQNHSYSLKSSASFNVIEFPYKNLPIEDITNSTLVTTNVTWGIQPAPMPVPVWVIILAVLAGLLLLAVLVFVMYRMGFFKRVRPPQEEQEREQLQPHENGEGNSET
T1 sequence (P05106 27-788): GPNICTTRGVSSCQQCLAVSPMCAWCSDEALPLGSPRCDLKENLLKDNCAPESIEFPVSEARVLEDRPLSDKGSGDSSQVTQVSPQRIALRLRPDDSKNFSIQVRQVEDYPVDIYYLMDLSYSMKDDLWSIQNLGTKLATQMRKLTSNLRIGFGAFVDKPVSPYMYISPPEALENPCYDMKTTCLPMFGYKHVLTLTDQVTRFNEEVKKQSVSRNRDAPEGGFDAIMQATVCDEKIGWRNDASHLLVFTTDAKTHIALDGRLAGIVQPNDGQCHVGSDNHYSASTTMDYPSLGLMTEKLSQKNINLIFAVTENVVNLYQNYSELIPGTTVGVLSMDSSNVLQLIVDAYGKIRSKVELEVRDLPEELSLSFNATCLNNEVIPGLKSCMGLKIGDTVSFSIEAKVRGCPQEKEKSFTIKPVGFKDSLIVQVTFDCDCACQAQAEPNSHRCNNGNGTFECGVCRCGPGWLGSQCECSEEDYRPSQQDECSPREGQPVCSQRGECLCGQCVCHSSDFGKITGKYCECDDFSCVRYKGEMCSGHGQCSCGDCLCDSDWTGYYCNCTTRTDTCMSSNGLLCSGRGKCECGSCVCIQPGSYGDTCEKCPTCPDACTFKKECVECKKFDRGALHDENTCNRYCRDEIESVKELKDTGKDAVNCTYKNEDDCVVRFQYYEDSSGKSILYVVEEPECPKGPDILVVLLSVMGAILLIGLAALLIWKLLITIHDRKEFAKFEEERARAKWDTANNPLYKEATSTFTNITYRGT

Row | Equivalent amount of RGD required compared to monovalent free RGD peptide (αvβ3 integrins; n=3) | pIC50 (αvβ3 integrins; equivalent RGD peptide concentration, read-out: IC50 concentration at which 50% of cell adhesion is inhibited) | Effect on cell attachment (αvβ3 integrins) | Substance | Toxicity to cells (HeLa cells) | NaCl concentration up to which nanoparticles are stable [1]
1 | required less | ~7.00 | – | Au-Cap-RGD: RGD modified gold nanoparticles formed with mixtures of Cap and Cap-RGD peptides (peptide 1 Ac-CCVVVTGRGDSPSSK-OH; peptide 2 CCVVVT-OH; cysteine pairing not given here; also: mixture of Cap and Cap-RGD peptides on gold nanoparticles) | – | –
2 | – | – | did not affect cell attachment | Au-Cap: 5 nm gold nanoparticles stabilized with self-assembling peptide CCVVVT (Cap) (CCVVVT-OH; cysteine pairing not given here; also: attached to 5 nm gold nanoparticles) | not toxic | up to 500 mM

Reference: US8263133B2, “Multivalent clustering targeting strategy for drug carriers” (The Regents of the University of California, priority 2009, dated 2012)
